# Results taken from patent publication US20100143262A1, “Method for Identifying Allergenic Proteins And Peptides” (priority 2008, published 2010).
# What was measured:
# [1] = test system: serum IgE of cow's milk allergic patients; assay: IgE binding capacity (IgE reactivity) of milk components with patients' sera; design: species or system human; conditions: sera of cow's milk allergic patients (n=78)
# Description: (§1) Sera from 78 patients who were selected according to a positive case history, positive skin-prick reactions and determination of specific IgE to cow's milk extract using the CAP-FEIA System (Phadia, Uppsala, Sweden) were used. Sera were obtained from five adults and 73 children (30 female and 43 male) from Austria, Germany, Italy, Spain and France.
# [2] = test system: Humanized Rat Basophil Leukaemia (RBL) cells (clone RBL-703/21); assay: human RBL assay: β-hexosaminidase release of humanized RBL cells loaded with patients' serum IgE; assay type: cell-based; conditions: percentage of 78 patients' sera triggering β-hexosaminidase release; milk components 0.3 μg/ml
# Description: A scientifically approved model to test biological reactivity of molecules is induction of histamine release from human basophil granulocytes (Purohit 2005). For this purpose a rat basophil leukaemia cell line expressing the α-chain of the human FcεRI receptor (Hoffmann et al., Int Arch Allergy Immunol, Vol 126(4), p. 277-285) was used. Different milk components (n=33) including whole milk extracts from different species, milk fractions, purified natural and recombinant cow's milk proteins, and recombinant protein fragments were tested. The percentages of 78 patients whose serum IgE antibodies trigger β-hexosaminidase release of the humanized RBL cells in response to the individual milk components were determined (FIG. 3).
# as §1
# Humanized Rat Basophil Leukaemia (RBL) cells (clone RBL-703/21) were incubated in microtiter plates overnight at 37° C. (7% CO2, 95% humidity) with 50 μl human sera, diluted 1:10. Afterwards cells were washed and exposed to milk components, diluted to 0.3 μg/ml protein in Tyrodes buffer containing 50% D2O and 0.1% BSA/HAS for 1 hour at 37° C. (7% CO2, 95% humidity). Spontaneous release of the cells was also evaluated. Finally, the cell supernatants were incubated with 50 μl assay solution (0.1 M citric acid or sodium citrate, pH 4.5, 160 μM 4-methyl umbelliferyl-N-acetyl-β-D-glucosaminide) in new microtiter plates at 37° C. (7% CO2, 95% humidity) for 1 h. The reactions were stopped by addition of 100 μl glycine buffer per well and the fluorescence measured at λex: 360 and λem: 465 using a fluorescence microplate reader. The specific hexosaminidase release of each sample was calculated using the formula: [(FlS−FlSp):(FlZ−FlSp)]×100 (where […] is the fluorescence of the sample; FlSp is the fluorescence of the spontaneous release and FlZ is the fluorescence of the total release).
IgE binding (% of patients) [1],Molecule,biological activity (% of patients) [2]
48.7 % of patients,"recombinant alphaS1-casein (protein, expressed in E. coli) RPKHPIKHQGLPQEVLNENLLRFFVAPFPEVFGKEKVNELSKDIGSESTEDQAMEDIKQMEAESISSSEEIVPNSVEQKHIQKEDVPSERYLGYLEQLLRLKKYKVPQLEIVPNSAEERLHSMKEGIHAQQKEPMIGVNQELAYFYPELFRQFYQLDAYPSGAWYYVPLGTQYTDAPSFSDIPNPIGSENSEKTTMPLW",19.2 % of patients
5.1 % of patients,"lactoferrin (protein, UniProt P24627 20-708, looked up, natural purified protein) Lactotransferrin: APRKNVRWCTISQPEWFKCRRWQWRMKKLGAPSITCVRRAFALECIRAIAEKKADAVTLDGGMVFEAGRDPYKLRPVAAEIYGTKESPQTHYYAVAVVKKGSNFQLDQLQGRKSCHTGLGRSAGWIIPMGILRPYLSWTESLEPLQGAVAKFFSASCVPCIDRQAYPNLCQLCKGEGENQCACSSREPYFGYSGAFKCLQDGAGDVAFVKETTVFENLPEKADRDQYELLCLNNSRAPVDAFKECHLAQVPSHAVVARSVDGKEDLIWKLLSKAQEKFGKNKSRSFQLFGSPPGQRDLLFKDSALGFLRIPSKVDSALYLGSRYLTTLKNLRETAEEVKARYTRVVWCAVGPEEQKKCQQWSQQSGQNVTCATASTTDDCIVLVLKGEADALNLDGGYIYTAGKCGLVPVLAENRKSSKHSSLDCVLRPTEGYLAVAVVKKANEGLTWNSLKDKKSCHTAVDRTAGWNIPMGLIVNQTGSCAFDEFFSQSCAPGADPKSRLCALCAGDDQGLDKCVPNSKEKYYGYTGAFRCLAEDVGDVAFVKNDTVWENTNGESTADWAKNLNREDFRLLCLDGTRKPVTEAQSCHLAVAPNHAVVSRSDRAAHVKQVLLHQQALFGKNGKNCPDKFCLFKSETKNLLFNDNTECLAKLGGRPTYEEYLGTEYVTAIANLKKCSTSPLLEACAFLTR",2.6 % of patients
9.0 % of patients,"recombinant aS2-casein (protein, expressed in E. coli) KNTMEHVSSSEESIISQETYKQEKNMAINPSKENLCSTFCKEVVRNANEEEYSIGSSSEESAEVATEEVKITVDDKHYQKALNEINQFYQKFPQYLQYLYQGPIVLNPWDQVKRNAVPITPTLNREQLSTSEENSKKTVDMESTEVFTKKTKLTEEEKNRLNFLKKISQRYQKFALPQYLKTVYQHQKAMKPWIQPKTKVIPYVRYL",5.1 % of patients
55.1 % of patients,"recombinant beta-casein (protein, expressed in E. coli) RELEELNVPGEIVESLSSSEESITRINKKIEKFQSEEQQQTEDELQDKIHPFAQTQSLVYPFPGPIPNSLPQNIPPLTQTPVVVPPFLQPEVMGVSKVKEAMAPKHKEMPFPKYPVEPFTESQSLTLTDVENLHLPLPLLQSWMHQPHQPLPPTVMFPPQSVLSLSQSKVLPVPQKAVPYPQRDMPIQAFLLYQEPVLGPVRGPFPIIV",10.3 % of patients

# Second part, the molecule before the results:
Molecule,IgE binding (% of patients) [1],biological activity (% of patients) [2]
"BSA_F2: recombinant fragment 2 of BSA, 189 aa, sequence in Table 1A (protein) MARQRLRCASIQKFGERALKAWSVARLSQKEPKAEFVEVTKLVTDLTKVHKECCHGDLLECADDRADLAKYICDNQDTISSKLKECCDKPLLEKSHCIAEVEKDAIPENLPPLTADFAEDKDVCKNYQEAKDAFLGSFLYEYSRRHPEYAVSVLLRLAKEYEATLEECCAKDDPHACYSTVFDKLKHLVDEHHHHHH",8.5 % of patients,4.3 % of patients
"BSA_F3: recombinant fragment 3 of BSA, 200 aa, sequence in Table 1A (protein) MPQNLIKQNCDQFEKLGEYGFQNALIVRYTRKVPQVSTPTLVEVSRSLGKVGTRCCTKPESERMPCTEDYLSLWNRLCVLHEKTPVSEKVTKCCTESLVNRRPCFSALTPDETYVPKAFDEKLFTFHADICTLPDTEKQIKKQTALVELLKHKPKATEEQLKTVMENFVAFVDKCCAADDKEACFAVEGPKLVVSTQTALAHHHHHH",8.5 % of patients,8.5 % of patients
"human alpha-lactalbumin (protein, natural purified protein) KQFTKCELSQLLKDIDGYGGIALPELICTMFHTSGYDTQAIVENNESTEYGLFQISNKLWCKSSQVPQSRNICDISCDKFLDDDITDDIMCAKKILDIKGIDYWLAHKALCTEKLEQWLCEKL",30.8 % of patients,6.4 % of patients
"beta-lactoglobulin variant A (protein, natural purified protein) LIVTQTMKGLDIQKVAGTWYSLAMAASDISLLDAQSAPLRVYVEELKPTPEGDLEILLQKWENDECAQKKIIAEKTKIPAVFKIDALNENKVLVLDTDYKKYLLFCMENSAEPEQSLVCQCLVRTPEVDDEALEKFDKALKALPMHIRLSFNPTQLEEQCHI",50.0 % of patients,28.2 % of patients
"beta-casein (protein, UniProt P02666 16-224, looked up, natural purified protein) Beta-casein: RELEELNVPGEIVESLSSSEESITRINKKIEKFQSEEQQQTEDELQDKIHPFAQTQSLVYPFPGPIPNSLPQNIPPLTQTPVVVPPFLQPEVMGVSKVKEAMAPKHKEMPFPKYPVEPFTESQSLTLTDVENLHLPLPLLQSWMHQPHQPLPPTVMFPPQSVLSLSQSKVLPVPQKAVPYPQRDMPIQAFLLYQEPVLGPVRGPFPIIV",44.9 % of patients,34.6 % of patients
"BSA_F1: recombinant fragment 1 of BSA, 190 aa, sequence in Table 1A (protein) MRGVFRRDTHKSEIAHRFKDLGEEHFKGLVLIAFSQYLQQCPFDEHVKLVNELTEFAKTCVADESHAGCEKSLHTLFGDELCKVASLRETYGDMADCCEKQEPERNECFLSHKDDSPDLPKLKPDPNTLCDEFKADEKKFWGKYLYEIARRHPYFYAPELLYYANKYNGVFQECCQAEDKGACLLPKIETMREKVLTSSHHHHHH",2.1 % of patients,4.3 % of patients
